{"source": "patent US20060160146", "key": {"[1]": {"system": "SEAP-APPwt fusion protein (secretory alkaline phosphatase fused to APP 581-695, no Swedish mutations)"}, "[2]": {"system": "SEAP-APPsw fusion protein (secretory alkaline phosphatase fused to APP 581-695 with glutamic acid at position 17 of β-amyloid and Swedish mutations)"}, "[3]": {"system": "BE11-hAPP695 with alanine at position 17 of β-amyloid", "sequence (chain, as listed by the source)": "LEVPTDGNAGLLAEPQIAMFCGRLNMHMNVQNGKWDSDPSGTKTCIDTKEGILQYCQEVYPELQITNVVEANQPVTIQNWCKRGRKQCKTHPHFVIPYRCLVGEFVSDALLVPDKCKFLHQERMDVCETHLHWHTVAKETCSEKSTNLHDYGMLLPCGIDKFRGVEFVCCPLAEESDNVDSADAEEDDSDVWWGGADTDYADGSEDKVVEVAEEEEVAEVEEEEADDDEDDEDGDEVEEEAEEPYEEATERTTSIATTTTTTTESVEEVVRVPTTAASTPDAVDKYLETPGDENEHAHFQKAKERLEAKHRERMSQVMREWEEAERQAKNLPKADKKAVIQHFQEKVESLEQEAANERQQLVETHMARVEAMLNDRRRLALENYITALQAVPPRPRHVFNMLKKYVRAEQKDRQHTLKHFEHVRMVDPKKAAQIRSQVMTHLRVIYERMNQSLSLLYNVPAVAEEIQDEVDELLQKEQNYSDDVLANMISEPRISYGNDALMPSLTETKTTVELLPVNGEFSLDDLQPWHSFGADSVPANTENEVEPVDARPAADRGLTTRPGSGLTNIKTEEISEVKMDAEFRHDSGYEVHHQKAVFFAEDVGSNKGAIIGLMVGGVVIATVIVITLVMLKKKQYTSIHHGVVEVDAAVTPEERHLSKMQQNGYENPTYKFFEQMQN"}, "[4]": {"system": "BE11-hAPP695 with glutamic acid at position 17 of β-amyloid", "sequence (chain, as listed by the source)": "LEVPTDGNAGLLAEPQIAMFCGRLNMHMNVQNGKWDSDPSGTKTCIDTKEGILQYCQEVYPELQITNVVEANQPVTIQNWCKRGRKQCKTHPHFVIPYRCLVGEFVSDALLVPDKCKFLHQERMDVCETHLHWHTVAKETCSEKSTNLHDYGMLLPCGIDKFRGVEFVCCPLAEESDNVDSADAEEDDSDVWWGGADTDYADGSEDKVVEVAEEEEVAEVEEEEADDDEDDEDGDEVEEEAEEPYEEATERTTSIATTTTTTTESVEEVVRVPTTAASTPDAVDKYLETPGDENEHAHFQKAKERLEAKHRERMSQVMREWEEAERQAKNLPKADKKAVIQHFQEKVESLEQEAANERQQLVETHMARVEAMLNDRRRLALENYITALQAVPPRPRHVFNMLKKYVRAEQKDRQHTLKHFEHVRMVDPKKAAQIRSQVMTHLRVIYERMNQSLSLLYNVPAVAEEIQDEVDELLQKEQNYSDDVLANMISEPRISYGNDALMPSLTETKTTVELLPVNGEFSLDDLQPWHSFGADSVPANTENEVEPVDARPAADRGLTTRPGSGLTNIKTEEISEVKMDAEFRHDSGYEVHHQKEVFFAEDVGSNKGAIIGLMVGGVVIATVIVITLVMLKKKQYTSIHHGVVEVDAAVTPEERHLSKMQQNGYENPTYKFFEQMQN"}, "[5]": {"system": "BE11-hAPP695 with proline at position 17 of β-amyloid", "sequence (chain, as listed by the source)": "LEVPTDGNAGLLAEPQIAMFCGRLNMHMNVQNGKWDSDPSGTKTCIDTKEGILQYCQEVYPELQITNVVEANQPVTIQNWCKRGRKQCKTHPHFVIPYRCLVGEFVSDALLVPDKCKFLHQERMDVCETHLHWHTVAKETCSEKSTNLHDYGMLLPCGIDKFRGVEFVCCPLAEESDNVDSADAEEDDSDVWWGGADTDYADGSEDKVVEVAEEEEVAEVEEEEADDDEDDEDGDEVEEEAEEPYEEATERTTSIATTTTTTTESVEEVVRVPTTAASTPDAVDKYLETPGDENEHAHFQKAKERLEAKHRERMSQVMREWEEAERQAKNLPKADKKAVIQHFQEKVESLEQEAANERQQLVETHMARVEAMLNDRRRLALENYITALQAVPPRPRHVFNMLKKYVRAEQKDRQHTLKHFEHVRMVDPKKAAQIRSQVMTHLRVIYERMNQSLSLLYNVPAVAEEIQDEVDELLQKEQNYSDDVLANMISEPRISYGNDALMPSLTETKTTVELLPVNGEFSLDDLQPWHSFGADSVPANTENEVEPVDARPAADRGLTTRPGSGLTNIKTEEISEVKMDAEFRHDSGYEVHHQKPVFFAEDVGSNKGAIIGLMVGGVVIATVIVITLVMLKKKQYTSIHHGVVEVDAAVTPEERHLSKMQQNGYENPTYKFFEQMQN"}, "[6]": {"system": "BE11-hAPP695 with lysine at position 17 of β-amyloid", "sequence (chain, as listed by the source)": "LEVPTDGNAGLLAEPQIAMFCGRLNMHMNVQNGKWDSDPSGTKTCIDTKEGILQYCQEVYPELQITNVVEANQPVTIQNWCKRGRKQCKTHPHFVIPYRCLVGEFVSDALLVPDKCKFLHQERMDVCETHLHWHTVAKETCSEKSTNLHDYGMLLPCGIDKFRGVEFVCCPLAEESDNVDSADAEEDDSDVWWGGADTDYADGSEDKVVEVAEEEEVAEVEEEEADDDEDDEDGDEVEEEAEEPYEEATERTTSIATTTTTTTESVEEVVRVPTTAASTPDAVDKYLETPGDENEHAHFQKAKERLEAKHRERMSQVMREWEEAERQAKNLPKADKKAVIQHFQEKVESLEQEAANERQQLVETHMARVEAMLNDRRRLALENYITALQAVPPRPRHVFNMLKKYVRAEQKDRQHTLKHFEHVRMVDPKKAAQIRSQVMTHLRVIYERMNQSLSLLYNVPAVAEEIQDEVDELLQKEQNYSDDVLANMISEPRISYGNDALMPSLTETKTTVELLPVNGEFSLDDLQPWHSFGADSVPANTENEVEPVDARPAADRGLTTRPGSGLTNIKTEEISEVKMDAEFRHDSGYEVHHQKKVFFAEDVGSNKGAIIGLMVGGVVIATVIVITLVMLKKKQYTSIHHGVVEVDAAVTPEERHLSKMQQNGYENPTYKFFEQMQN"}, "[7]": {"system": "BE11-hAPP695 with tryptophan at position 16 of β-amyloid", "sequence (chain, as listed by the source)": "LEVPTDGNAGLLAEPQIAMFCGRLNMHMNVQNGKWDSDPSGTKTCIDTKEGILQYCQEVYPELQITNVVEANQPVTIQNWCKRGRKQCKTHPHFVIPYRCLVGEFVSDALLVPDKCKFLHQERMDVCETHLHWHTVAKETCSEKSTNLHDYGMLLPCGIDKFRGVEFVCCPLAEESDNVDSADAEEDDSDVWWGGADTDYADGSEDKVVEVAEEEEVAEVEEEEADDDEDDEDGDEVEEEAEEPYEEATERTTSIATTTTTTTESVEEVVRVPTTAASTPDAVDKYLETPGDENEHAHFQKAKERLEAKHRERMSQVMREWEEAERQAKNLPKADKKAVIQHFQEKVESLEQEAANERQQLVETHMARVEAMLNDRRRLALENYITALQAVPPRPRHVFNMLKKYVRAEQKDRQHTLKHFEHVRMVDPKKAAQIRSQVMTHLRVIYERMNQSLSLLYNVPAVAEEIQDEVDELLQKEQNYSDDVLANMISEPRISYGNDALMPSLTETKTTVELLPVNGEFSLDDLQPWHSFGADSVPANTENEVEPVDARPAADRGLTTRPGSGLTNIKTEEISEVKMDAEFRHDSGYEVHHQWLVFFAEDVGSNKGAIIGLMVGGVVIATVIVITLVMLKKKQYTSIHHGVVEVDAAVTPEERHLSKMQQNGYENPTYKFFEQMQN"}}}
{"substance": "β-secretase (endogenous activity of the CHO-K1 cells of Example 2)", "values": [{"measurement": "β-secretase cleavage product in culture supernatant, Western blotting", "setting": "[1]", "result": "a β-secretase cleavage product was detected only in the fusion protein expression cell line (S)"}, {"measurement": "β-amyloid production", "setting": "[2]", "result": "produced 5 to 10 times as much β-amyloid"}, {"measurement": "β-secretase cleavage product in culture supernatant, Western blotting", "setting": "[2]", "result": "a β-secretase cleavage product was detected only in the fusion protein expression cell line (S)"}]}
{"substance": "β-secretase (endogenous activity of the COS7 cells of Example 1)", "values": [{"measurement": "β-cleavage: amount of β-secretase cleavage product (sAPPβ) in culture supernatant, Western blotting", "setting": "[3]", "result": "→"}, {"measurement": "β-cleavage: amount of β-secretase cleavage product (sAPPβ) in culture supernatant, Western blotting", "setting": "[4]", "result": "→"}, {"measurement": "β-cleavage: amount of β-secretase cleavage product (sAPPβ) in culture supernatant, Western blotting", "setting": "[5]", "result": "→"}, {"measurement": "β-cleavage: amount of β-secretase cleavage product (sAPPβ) in culture supernatant, Western blotting", "setting": "[6]", "result": "↑"}, {"measurement": "β-cleavage: amount of β-secretase cleavage product (sAPPβ) in culture supernatant, Western blotting", "setting": "[7]", "result": "→"}]}
{"substance": "α-secretase (endogenous activity of the CHO-K1 cells of Example 2)", "values": [{"measurement": "α-cleavage product in culture supernatant, Western blotting", "setting": "[1]", "result": "no α-cleavage product was detected in any culture supernatant"}, {"measurement": "α-cleavage product in culture supernatant, Western blotting", "setting": "[2]", "result": "no α-cleavage product was detected in any culture supernatant"}]}
{"substance": "α-secretase (endogenous activity of the COS7 cells of Example 1)", "values": [{"measurement": "α-cleavage: amount of α-secretase cleavage product (sAPPα) in culture supernatant, Western blotting", "setting": "[3]", "result": "↓"}, {"measurement": "α-cleavage: amount of α-secretase cleavage product (sAPPα) in culture supernatant, Western blotting", "setting": "[4]", "result": 0}, {"measurement": "α-cleavage: amount of α-secretase cleavage product (sAPPα) in culture supernatant, Western blotting", "setting": "[5]", "result": 0}, {"measurement": "α-cleavage: amount of α-secretase cleavage product (sAPPα) in culture supernatant, Western blotting", "setting": "[6]", "result": "↓↓"}, {"measurement": "α-cleavage: amount of α-secretase cleavage product (sAPPα) in culture supernatant, Western blotting", "setting": "[7]", "result": "↓↓"}]}
